Results on 4 molecules are retold here after patent US20210371514A1 (UNIVERSITY OF FLORIDA RESEARCH FOUNDATION, published 2021).

Assay [1] addresses T1, Corticotropin-releasing hormone (CRH).
T1 construct: 41-amino acid peptide derived from a 196-amino acid preprohormone (Genbank EAW86897.1); also called CRF; CRF peptide
T1 peptide: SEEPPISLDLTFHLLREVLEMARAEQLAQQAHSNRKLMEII
Description: method not stated (FIG. 2, affinity of monoclonal antibodies to CRH).

The target is the same in assay [2]. Description: Octet red BLI, CRF peptide against Antibody B at 300 nM to 0.412 nM; same value printed in all seven rows of the table [upper table, CRF peptide]. A general note: Biolayer interferometry detects binding as a change in optical thickness at a sensor tip.
Assay [3] shares this target. In words: Octet red BLI, CRF peptide against Antibody B at 300 nM to 0.412 nM; kdis(1/s), same value printed in all seven rows of the table [upper table, CRF peptide].
Assay [4] shares this target. Description: direct CRH ELISA with lysate of transfected HEK 293t cells. The protocol: ScFv constructs offer the advantage of being able to be delivered to the brain via AAV vectors. DNA constructs for ScFv's composed of the heavy and light variable regions of Antibody A and Antibody B, connected by a linker peptide, were generated. The amino acid sequences of the Antibody A and Antibody B scFvs are set forth in SEQ ID NOs: 22 and 23, respectively. DNA constructs were then transfected into Human Embryonic Kidney (HEK) 293t cells and incubated 48 hours. Cells were then lysed and analyzed for CRH binding via a direct CRH ELISA.
For orientation: An ELISA detects its analyte on a solid surface through an enzyme-linked reagent.

Where only a bound is given, the exact number is not on record here.

B1: anti-CRH antibody B (antibody, V domains shown)
VH: EVQLQQSGPELVKPGVSMKISCKASGYSFTDSTMNWVKQSHGKNLEWIGLIHPDNGGTIYNQKFKGKATLTVHKSSSTAYMELLSLTSEDSAVYYCANGFAYWGQGTLVTVSA
VL: DVVMTQTPLSLPVSLGDQASISCRSSQSLLHSNGNTYLHWYLQKPGQSPELLIYKVSNRFSGVPDRFSGSGSGTDFTLKISRVEAEDLGVYFCSQSTHVPLTFGAGTKLELK
notes: Mouse monoclonal antibody raised with Peptide B (CRH 1-21), purified (QED bio); It was detected with anti-mouse IgG-HRP, and mouse IgG1 served as isotype control in vivo
One may read the Kd as the concentration at which binding is half-saturated. Read a high Kd as lower affinity. As a reminder, the kon is the rate constant with which the complex forms. Low values mean slow association, high ones fast association. In general, koff refers to the first-order rate constant of dissociation. Low values mean slow dissociation, high ones fast dissociation. In the case of B1, in assay [1], the Kd was found to be 20.9 nM. Further, in assay [2], the Kd is less than 0.001 nM and the kon worked out at 97500 M⁻¹ s⁻¹. The molecule also yielded a koff in assay [3] of less than 1e-07 s⁻¹.

B2: anti-CRH antibody A (antibody, V domains shown)
VH: EVKLVESGGGLVKPGGSLKLSCAASGFTFSSYAMSWVRQTPEKRLEWVASISIGGSTYYRDSVKGRCTISRDNAKNILYLQMRSLRSEDTAMYYCARRGMDYWGQGTSVTVSS
VL: DIVITQDELSNPVTSGESVSISCRSSKSLLYKDGKTYLNWFLQRPGQSPQLLIYLMSTRASGVSDRFSGSGSGTDFTLEISRVKAEDVGVYYCQQLVEYPLTFGAGTKLELK
notes: Mouse monoclonal antibody raised with Peptide A (CRH 1-15)
Consider B2, for which the Kd in assay [1] is less than 0.001 nM.

B3: ScFv comprising the heavy and light variable regions of Antibody A (scFv)
scFv: DGVQCEVKLVESGGGLVKPGGSLKLSCAASGFTFSSYAMSWVRQTPEKRLEWVASISIGGSTYYRDSVKGRCTISRDNAKNILYLQMRSLRSEDTAMYYCARRGMDYWGQGTSVTVSSGGGGSGGGGSGGGGSDIVITQDELSNPVTSGESVSISCRSSKSLLYKDGKTYLNWFLQRPGQSPQLLIYLMSTRASGVSDRFSGSGSGTDFTLEISRVKAEDVGVYYCQQLVEYPLTFGAGTKLELKRASGHHHHHHGSDYKDDDDK
notes: also called Antibody A scFv
For B3, the binding result in assay [4] is reported as “binds”.

B4: ScFv comprising the heavy and light variable regions of Antibody B (scFv)
scFv: DEVQLQQSGPELVKPGVSMKISCKASGYSFTDSTMNWVKQSHGKNLEWIGLIHPDNGGTIYNQKFKGKATLTVHKSSSTAYMELLSLTSEDSAVYYCANGFAYWGQGTLVTVSAAKTTPPSVYPLAPGSAAGGGGSGGGGSGGGGSDVVMTQTPLSLPVSLGDQASISCRSSQSLLHSNGNTYLHWYLQKPGQSPELLIYKVSNRFSGVPDRFSGSGSGTDFTLKISRVEAEDLGVYFCSQSTHVPLTFGAGTKLELKGSHHHHHHGSDYKDDDDK
notes: also called Antibody B scFv
As to B4, the binding result in assay [4] is on record as “binds”.
